B1: CD2, purified, detergent-solubilized (receptor, human (endogenous in Jurkat or SKW3), UniProt P06729 25-351, looked up)
chain: KEITNALETWGALGQDINLDIPSFQMSDDIDDIKWEKTSDKKKIAQFRKEKETFKEKDTYKLFKNGTLKIKHLKTDDQDIYKVSIYDTKGKNVLEKIFDLKIQERVSKPKISWTCINTTLTCEVMNGTDPELNLYQDGKHLKLSQRVITHKWTTSLSAKFKCTAGNKVSKESSVEPVSCPEKGLDIYLIIGICGGGSLLMVFVALLVFYITKRKKQRSRRNDEELETRAHRVATEERGRKPHQIPASTPQNPATSQHPPPPPGHRSQAPSHRPPPPGHRVQHQPQKRPPAPSGTQVHQQKGPPLPRPRVQPKPPHGAAENSLSPSSN
B2: lymphocyte function-associated antigen 3 (LFA-3) on human erythrocytes (ligand, human (endogenous in erythrocytes), UniProt P19256 29-250, looked up)
chain: FSQQIYGVVYGNVTFHVPSNVPLKEVLWKKQKDKVAELENSEFRAFSSFKNRVYLDTVSGSLTIYNLTSSDEDEYEMESPNITDTMKFFLYVLESLPSPTLTCALTNGSIEVQCMIPEHYNSHRGLIMYSWDCPMEQCKRNSTSIYFKMENDLPQKIQCTLSNPLFNTTSSIILTTCIPSSGHSRHRYALIPIPLAVITTCIVLYMNGILKCDRKPDRTNSN

Key:
[1] = molecular target: B2; assay: flow cytometry on cells
[2] = molecular target: B1; assay: flow cytometry on cells

| IC50 [1] | Ka [2] | Binder |
| --- | --- | --- |
| ~30 nM | – | B1 |
| – | ~3e+07 M⁻¹ | B2 |
